Data on 15 sequences can be found in the DeepSol protein solubility set.

A short description of the data set: soluble on expression in E. coli; label from the status in PepcDB or PDB records.
As to “MGHHHHHHSHMANSAGSMANSAGSMATLSDFFPEADPVLEKNYRRCVDLAINMSWSVPGQFKLVETPINSFLLVGDVLPNDMIESKPVNSTNLVNIPFPLSTLGVSTSKKSVEVTSYKSETEKFQEAASISEHSIRGSIVYEGLTWITAMGYNVTDFLVNMLEQMKCPENWSGLHPVDPLACVWLLYFGPKSRCSEIACVSELFIGKKGPILLPPHMYRGDTSVNSFAHHLCQYVKHLYADYEPEILSCPLDITRVKGCLSDLRQVAESCVFLSQRCLLCHLYKQNAAVSKNILTASDCIILGGSGKSLLGTYMKSYKDPATHDSILLPTYNLEAIVNYILEHYGHETAGQEINWE”, the “soluble on expression in E. coli” value is “not soluble”.
With “MNKKQRDEISKLLSYVLRHAPESMGLTLDRDGWCEVDELVGKANANGHSFDRQALEEVVETNEKKRFTLSEDGQRIRAAQGHSTEQVQVQHIEKEPPAWLYHGTASRFMASIETQGLIAGSRHHVHLTEDPETALSVGKRYGQPVLLAVDAKGMFEAGVQFFQADNGVWLVEAVPIEWLTKVADTVSLEHHHHHH”, the “soluble on expression in E. coli” value is on record as “soluble”.
Regarding “MFSLSFPSSSSALLPSLVAFDSSRRLSLQPKKLNRLQSHLFSPQHLSFSQSNVSRYRAFCVSSSSPPEGTVSVVDFHEKDWSFLESMEIDSTEHTQKIERIIKAGELSESSRVLVSISSETFVDRLVESSPSQLLLIVHDSLFTLACIKEKYDKVKCWQGEMIYVPEKWSPLDAVFLYFLPALPFDLDELFKTLSQRCSSGARVVISHPQGRLGLEQQRKEFSDVVVSDLPDESTLSNVAEKHSFELTQFVDEQGLYLAVLKSSKQ”, the “soluble on expression in E. coli” value is given as “soluble”.
Regarding “MAVAYEGQLTGHRGWVTSLACPQTPETATKVVSTSRDKTLLSWGPNPDRHSSECSYGLPDRRLEGHSAFVSDVALSNNGNFAVSASWDHSLRLWNLQNGQCQYKFLGHTKDVLSVAFSPDNRQIVSGGRDNALRVWNVKGECMHTLSRGAHTDWVSCVRFSPSLDAPVIVSGGWDNLVKVWDLATGRLVTDLKGHTNYVTSVTVSPDGSLCASSDKDGVARLWDLTKGEALSEMAAGAPINQICFSPNRYWMCAATEKGIRIFDLENKDIIVELAPEHQGSKKIVPECVSIAWSADGSTLYSGYTDNVIRVWGVSENA”, the “soluble on expression in E. coli” value was “not soluble”.
With “MKIGIIGAGFVARAIAKLALQNGHQVMLSNSRDPQSLFSLRPMIGCDIGTATQAALFGDIIVIAVPFTAIDKLPEQALQGKSVIDAVNYYTERDGKVAALDTRSTTTSELLAGYLPGAKITKAFNAITMTQLERDGLPAGSAHRRALPLAGDHEQEKTIVAELYDAFGFDVVDAGKLSEGWRFERNMPSYCVRMTKAELTTALALSSRLEHHHHHH”, the “soluble on expression in E. coli” value is recorded as “soluble”.
For the sequence “YWGPLDVGEAKSLPGMEDPKLVYIPSIAPSNMVLYRGDKYSELDGKILVGALKLTHINVVGINDGKLTESQRLLEKLGERIRDITISPDGYIYFSTDSGKIFRLTEQ”, the “soluble on expression in E. coli” value was “not soluble”.
Regarding “MTFAPGFSGGLSPAYRLGSRRSPSPFSEEVRAEEGPGAGGFSQVFHTPCLCLGTMRWKSVLGLAVLLLASLALAQALTLDLRPYLVKVVEGKEVYEANPLAVRPGDVLEWRLVAENRAQGDLRQVALVIPIPKETYYLEGSAKPLQVGGTIVPPEFSFDGGKTFGRPPLKKRIRVVENGKEVEKEVEVKPEEYTHARWVIPVLSKGDKVMVSLRTIVR”, the “soluble on expression in E. coli” value was “soluble”.
As for “MSLRKSTLSGEVRVRNHQLGIYEKALAKDLSWPERLVLAKSCGFDFVEMSVDETDERLSRLDWSAAQRTSLVAAMIETGVGIPSMCLSAHRRFPFGSRDEAVRERAREIMSKAIRLARDLGIRTIQLAGYDVYYEDHDEGTRQRFAEGLAWAVEQAAASQVMLAVEIMDTAFMNSISKWKKWDEMLASPWFTVYPDVGNLSAWGNDVPAELKLGIDRIAAIHLKDTQPVTGQSPGQFRDVPFGEGCVDFVGIFKTLHKLNYRGSFLIEMWTEKAKEPVLEIIQARRWIEARMQEAGFICEGGSHHHHHH”, the “soluble on expression in E. coli” value is reported as “soluble”.
Consider “MISIVIPLYNQVAYTQLCVQSLRRAGLNGVDVLLIDNGSTDGTAEYLKSCSDLRVIRNRENLGCAGAWNQGVRETTSEWVMILNNDVVVSPGWLDGLLEAAGKEGLDVVSPAIREGEYNYDIEGYSQEFVGRMGDVVRRGVADGICFMVRRRVFEVVGLFDENFRIGQFEDADFFRRARNAGFRLGTTGRSFIHHFGSVTQDAIRKNRPERPYVAENRAYFREKWQLTRGRRLIERWRRKLREFAWQKCERMFHGHTLKEKWLGGRLRYYLEHHHHHH”, for which the “soluble on expression in E. coli” value is given as “not soluble”.
Regarding “MDTVVMSWWDFGHLFAVAADRPVTFDGGSQNTPRAYWIGKALTTSNETLSRGILTMLSTSGDLAYETLDNYTDDSGKTAEILTATLGLPREEARAVMTGRYGLSDKEADSVLRYSHPAKPKPFVLVLSSDMLGKAPWWTYFGTWDFKKKTGSRLEHHHHHH”, the “soluble on expression in E. coli” value is recorded as “not soluble”.
To “MKSRFRFHLCCVCMLALAVAGCKVKRPDDVISESKMENLLYDYHLAKSMGDNLPYNENYKKTLYLDAVFKKYGTTEAVFDSSLVWYTRNTEVLSKIYEKVSKRLKAQQNEINHLIALRDNKPKMSEPGDSIDVWPWKCFIRLTGEMMNDQYAFVLPVDTNYKDRDTLVWEVRYRFLEPMLADSLRAVTMAMQVIYEKDTLNHLETITDPGVHQIRLYADTLGVMKEIKGFIYYPGVQGEKAGALLADRFALTRYHCSDSLSVAERDSINQLEALKTDSLKKVSDQKDTKISKDSLRKVDDLKDNQRISPEEMNRRRTVTPEKKPEQIEVEQHIQQEKIEQRRERQLNQRRNQQRRQSPSR” belongs “not soluble”.
On to “MGSDKIHHHHHHMLKITFLGTNGWFDSNTGNTPSVLIEHRNYYIILDAGNGISKLRNCISSDKPVYLFLSHFHLDHISGLHTLPLNKFSKGLYIIVPKGGTKLINQFVNVPFTVPIKKLPFKTEIIEACNKLNFLPFKATFLPLVHSSYVLGIRLEIDSKTISYCTDTSYCFNAITLAKNADLLISECSMKPLGTDDASVHLNPELASKIAKEAGAKKLMLIHFDAAKYLTLDDRKKAELAAKTIFNNSYASYDDLELQV”, for which the “soluble on expression in E. coli” value was “not soluble”.
To “MSLILKRVYIDFEMNMPNSKSKRAVFNSDIIAIGAVMYDEKTKNIDKFKSLIRPVSNEELYPHIQELTHISSEELKSAPSYEEVMRKFKKWLGIFSDIKGIYTFGNLDLTCFNNTDMRSAKKNNHPRFVNNIRDLFVDIKEKYINCGMRCMNYISLKNLLEFVNLEFSGDAHDPLNDAYNLFILDEAITNNVDIQNLLIIRDIIRPPFNDINSNLDNCFNKFKESLYKKEGNYNIVDFSVEIIKTVRMYLLTIIDVNIQNLEIMKDISKKMDTIDKLKDIEEGYFYLLEDVYFDMKDVLEDLMLYRMNEDEYKYEIKNIIKMFDEDLDNEKIYINKCNNLNVVNKEGHHHHHH” belongs “not soluble”; to “SGIAVSDDCVQKFNELKLGHQHRYVTFKMNASNTEVVVEHVGGPNATYEDFKSQLPERDCRYAIFDYEFQVDGGQRNKITFILWAPDSAPIKSKMMYTSTKDSIKKKLVGIQVEVQATDAAEISEDAVSERAKKDVK”, “soluble”.
In the case of “MSSRKNFSRLTWFRKQRKAVVSSNDKKMPNGILEEQEQQRVMLLSRSPSGPKKFFPIPVEHLEEEIRVRSADDCKRFREEFNSLPSGHIQGTFELANKEENREKNRYPNILPNDHCRVILSQVDGIPCSDYINASYIDGYKEKNKFIAAQGPKQETVNDFWRMVWEQRSATIVMLTNLKERKEEKCYQYWPDQGCWTYGNIRVCVEDCVVLVDYTIRKFCIHPQLPDSCKAPRLVSQLHFTSWPDFGVPFTPIGMLKFLKKVKTLNPSHAGPIVVHCSAGVGRTGTFIVIDAMMDMIHSEQKVDVFEFVSRIRNQRPQMVQTDVQYTFIYQALLEYYLYGDTELDVSSLERHLQTLHSTATHFDKIGLEEEFRKLTNVRIMKENMRTGNLPANMKKARVIQIIPYDFNRVILSMKRGQEFTDYINASFIDGYRQKDYFMATQGPLAHTGEDFWRMVWEWKSHTIVMLTEVQEREQDKCYQYWPTEGSVTHGDITIEIKSDTLSEAISVRDFLVTFKQPLARQEEQVRMVRQFHFHGWPEVGIPAEGKGIIDLIAAVQKQQQQTGNHPITVHCSAGAGRTGTFIALSNILERVKAEGLLDVFQAVKSLRLQRPHMVQTLEQYEFCYKVVQDFIDIFSDYANFK”, the “soluble on expression in E. coli” value is “soluble”.
